The results in this text go back to patent publication US20240343803A1 (SHANDONG SIMCERE BIOPHARMACEUTICAL, published 2024).

Assay [1] deals with T1, human PVRIG on FlpinCHO-PVRIG cells (human, UniProt Q6DKI7 41-326).
T1 construct: whole, on cells; also called FlpinCHO-hPVRIG; FlpinCHO-human PVRIG
T1 sequence (looked up): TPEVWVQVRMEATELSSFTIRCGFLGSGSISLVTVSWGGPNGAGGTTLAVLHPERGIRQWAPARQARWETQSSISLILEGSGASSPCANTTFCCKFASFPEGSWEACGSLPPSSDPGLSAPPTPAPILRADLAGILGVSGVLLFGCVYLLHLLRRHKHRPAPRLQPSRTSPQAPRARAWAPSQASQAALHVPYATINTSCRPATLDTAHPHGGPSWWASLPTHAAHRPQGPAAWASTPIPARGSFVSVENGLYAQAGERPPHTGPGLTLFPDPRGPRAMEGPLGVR
As to the kind of experiment: FACS, FlpinCHO-PVRIG cells. As for the experimental part: After discarding the cell culture medium, the cells were rinsed with PBS and digested for 8-10 minutes by adding 1 mL Versene (Gibico, 15040-066). The Ham's F12 (Gibico, 21127-022) complete medium containing 10% FBS was then added to terminate the digestion and acquire cell suspension. After counting with a cell counter (Beckman Coulter, Vi-CELL), an appropriate amount of cell suspension was centrifuged at 350×g to remove the supernatant, washed twice with PBS, stained with Zombie violet (Biolegend, 423114) and incubated at room temperature for 20 minutes. After incubation, the cells were added with staining buffer (2% FBS+PBS) to stop staining, centrifuged at 350×g to remove the supernatant, washed twice and resuspended with staining buffer to a density of 2×10⁶ cells/mL. The cells were plated into a 96-well plate (50 μL of cell suspension per well) for further use. The antibodies were diluted from the highest concentration of 46 nM (two-fold concentration) with staining buffer by 3.3-fold serial dilution. The diluted antibodies were added to the well containing 50 μL of cell suspension. The plate was placed on a microplate shaker at 400 rpm for 1 minute to fully mix the antibodies and cells, and then incubated at 4° C. for 30 minutes. After the incubation, the cells were washed twice with staining buffer (200 μL per well) and centrifuged at 350×g for 5 minutes to discard the supernatant. The PE goat anti-human IgG Fc antibody (ebioscience, 12-4998-82) was diluted 250 times with staining buffer, added into the washed wells (100 μL per well), mixed well, and stained at 4° C. for 30 minutes. After staining, the cells were washed twice with staining buffer, finally resuspended with 200 μL staining buffer and analyzed by flow cytometry (BD, Canto II). The stronger the signal, the stronger the ability of the antibodies binds to PVRIG. An antibody binding curve was drawn with concentration of antibodies as the abscissa and the corresponding Mean Fluorescence Intensity (MFI) as the ordinate. The AUC value of the curve was calculated by using a Four Parameter Logistic Fit (GraphPadPrism9).
A general note: A flow cytometer gives signals particle by particle.

Assay [2] addresses T2, human PVRIG-mFc protein (Acro, PVG-H5253) (human, UniProt Q6DKI7 41-171, limits assumed).
T2 construct: bought reagent; also called PVRIG-ECD-mFc
T2 sequence (looked up): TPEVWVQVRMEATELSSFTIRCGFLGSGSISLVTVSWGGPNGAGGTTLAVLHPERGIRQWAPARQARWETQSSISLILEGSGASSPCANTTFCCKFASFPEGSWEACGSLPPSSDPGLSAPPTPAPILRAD
Put plainly: competition FACS; blocked: human PVRIG-mFc binding to CHO-K1-CD112 cells. The procedure: After incubation, the cells were added with staining buffer (2% FBS+PBS) to stop staining, centrifuged at 350×g to remove the supernatant, washed twice and resuspended with staining buffer to a density of 1×10⁶ cells/mL. The cells were plated into a 96-well plate (50 μL of cell suspension per well) for further use. A working solution of human PVRIG-mFc protein (Acro, PVG-H5253) prepared with staining buffer, 1 μg/mL (four-fold concentration), was added into a 96-well plate (50 μL PVRIG-mFc working solution per well). […] The diluted antibodies were added to the well containing 50 μL of PVRIG-mFc. The plate was placed on a microplate shaker at 400 rpm for 1 minute to fully mix the antibodies and PVRIG-mFc proteins, and then incubated at 4° C. for 30 minutes. After the incubation, the cell suspension prepared above (100 μL) was added into the wells, gently mixed with the pipette tip and incubated at 4° C. for 30 minutes. After the incubation, the cells were washed twice with staining buffer (200 μL per well) and centrifuged at 350×g for 5 minutes to discard the supernatant. The PE goat anti-mouse IgG Fc antibody (Biolegend, 405337) was diluted 250 times with staining buffer, added into the washed wells (100 μL per well), mixed well, and stained at 4° C. for 30 minutes. After staining, the cells were washed twice with staining buffer, finally resuspended with 200 μL staining buffer and analyzed by flow cytometry (BD, Canto II). The weaker the fluorescence signal, the stronger the ability of the antibodies blocks the binding of CHO-K1 human CD112 cells to the PVRIG-mFc protein. An antibody binding curve was drawn with concentration of antibodies as the abscissa and the corresponding Mean Fluorescence Intensity (MFI) as the ordinate. The IC50 value of the antibodies and the AUC value of the binding curve were calculated by using a Four Parameter Logistic Fit (GraphPadPrism9). The smaller the IC50 value and AUC value, the stronger the ability of the antibodies competes with CHO-K1-CD112 cells to bind to human PVRIG-mFc protein.

The target of assay [3] is T3, human PVRIG-his (AcroBiosystems, Cat NO. PVG-H52H4) (human, UniProt Q6DKI7 41-171, limits assumed).
T3 construct: treated as the same protein; also called human PVRIG-His protein; Human PVRIG-His, Acro C227P1-9ARF1-T4
T3 sequence (looked up): T2 sequence (looked up)
Put plainly: competition ELISA on coated human PVRIG-his; blocked ligand human PVRL2-mFc. As for the experimental part:
The ELISA plate was pre-coated with 100 μL/well of 0.5 μg/mL human PVRIG-his protein (AcroBiosystems, Cat NO. PVG-H52H4). The tested anti-PVRIG antibodies were diluted from the highest concentration of 16 nM (two-fold concentration). The diluted antibodies were mixed with 18 ng/ml human PVRL2-mFc (AcroBiosystems, Cat NO. CD2-H5257) in equal volume, added into the plate (100 μL/well), and incubated with shaking at room temperature for 2.0 hours. […] A HRP substrate, TMB (Thermo, Cat NO. 34029) was added into wells after washing the plate again for color development. After adding a termination solution to terminate the reaction, the absorbance value was read by a microplate reader (MD i3×). An inhibiting curve was drawn with concentration of antibodies as the abscissa and the corresponding OD value as the ordinate. The IC50 value was calculated by using a Four Parameter Logistic Fit (GraphPadPrism9). The smaller the IC50 value, the stronger the ability of the antibodies inhibits the binding between PVRIG and PVRL2. The positive and negative controls are the same as in Example 8.

B1: PVRIG-A117 (VHH)
VHH: EVQVVESGGGLVQAGGSLRLSCTASEHIYDLYIMGWYRQAPGKDRELVATITYTGSIYIADSVKDRFTISRGNAKNTVSLQMSGLKPEDTAVYYCNADPSGLGRKLYWGQGTQVTVSS
notes: tested as VHH-hinge-CH2-CH3 (human IgG1-Fc); not shown: human IgG1 hinge-CH2-CH3
With B1, the EC50 (read off the curve) (in general, the midpoint of the concentration-response curve) in assay [1] was approximately 300 pM. The “IC50 (read off the curve)” value in assay [2] is approximately 1000 pM; in assay [3] it was approximately 500 pM.

B2: PVRIG-A11 (VHH)
VHH: QLQLVESGGGLVQPGGSLRLSCAASGFTDDYYAIGWFRQAPGKEREGVSCISGSGGSTNYEDSVKGRFAISRDNAKNMVYLQMNDLKPEDTAVYYCAADPFWSAPCTGHNDRYFDVWGQGTLVTVSS
notes: as for B1
Consider B2, for which, in assay [1], the 50% effective concentration (EC50 (read off the curve)) was approximately 100 pM. For the same molecule, the figures for the “IC50 (read off the curve)” value in assay [2] and in assay [3] were approximately 900 pM and approximately 800 pM, respectively.
